{"source": "paper doi:10.1101/2024.05.24.595734", "about": "(bioRxiv, 2024)", "key": {"[1]": {"target": "PrfA^WT (Listeria monocytogenes virulence master regulator PrfA) (Listeria monocytogenes) (UniProt P22262)", "assay": "ITC"}, "crystal structure": {"target": "the molecule itself", "assay": "crystal structure"}}}
{"molecule": "tripeptide EVF", "values": [{"measurement": "Kd", "setting": "[1]", "result": 12, "unit": "µM"}]}
{"molecule": "STLL", "note": "[tetrapeptide STLL]", "values": [{"measurement": "Kd", "setting": "[1]", "result": 32, "unit": "µM"}]}
{"molecule": "PrfA^WT (Listeria monocytogenes virulence master regulator PrfA) (natural protein) GAMNAQAEEFKKYLETNGIKPKQFHKKELIFNQWDPQEYCIFLYDGITKLTSISENGTIMNLQYYKGAFVIMSGFIDTETSVGYYNLEVISEQATAYVIKINELKELLSKNLTHFFYVFQTLQKQVSYSLAKFNDFSINGKLGSICGQLLILTYVYGKETPDGIKITLDNLTMQELGYSSGIAHSSAVSRIISKLKQEKVIVYKNSCFYVQNLDYLKRYAPKLDEWFYLACPATWGKLN", "values": [{"measurement": "binding result", "setting": "crystal structure", "result": "binds"}]}
{"molecule": "EVFL", "note": "[tetrapeptide EVFL]", "values": [{"measurement": "Kd", "setting": "[1]", "result": 15, "unit": "µM"}]}
{"molecule": "RGLL", "note": "[tetrapeptide RGLL]", "values": [{"measurement": "Kd", "setting": "[1]", "result": 145, "unit": "µM"}]}
